Reference: US20030236184A1

What was measured:
[1] = molecular target: type-II GnRH binding site in the pituitary of adult male land-locked P. marinus (P. marinus (sea lamprey)); assay: self-displacement of iodinated [DAla6,Pro9Net]-mammalian GnRH tracer, pituitary of adult male P. marinus; Ki from IC50
[2] = molecular target: type-I GnRH binding site in the pituitary of adult male land-locked P. marinus (P. marinus (sea lamprey)); assay: as above
[3] = molecular target: type-II GnRH binding site in the pituitary of adult male land-locked P. marinus (P. marinus (sea lamprey)); assay: competition with iodinated [DAla6,Pro9Net]-mammalian GnRH tracer, pituitary of adult male P. marinus; Ki from IC50
[4] = molecular target: type-I GnRH binding site in the pituitary of adult male land-locked P. marinus (P. marinus (sea lamprey)); assay: as above

Row | Substance | Ki [1] | Ki [2] | Ki [3] | Ki [4]
1 | [DAla^6, Pro^9Net]-mammalian GnRH (peptide) | 89 nM | 0.00311 nM | – | –
2 | [D-Phe^2,6, Pro^3]-lGnRH-III (peptide) | – | – | 52200 nM | 0.03 nM

Results, then the substance that gave them:

Row | Ki [1] | Ki [2] | Ki [3] | Ki [4] | Substance
3 | – | – | 8940 nM | 7.1 nM | [Ac-Delta-3Pro, 4FDPhe^2-D-Trp^3,6]-lGnRH-III (peptide)
4 | – | – | 655 nM | 0.00383 nM | [D-Phe^2, Gly^6]-lGnRH-III (peptide)
5 | – | – | 5650 nM | 1.37 nM | [D-Phe^2, Gly^6]-lGnRH-I (peptide)
